{
  "source": "paper doi:10.1101/2020.03.20.999888",
  "about": "(bioRxiv, 2020)",
  "binders": {"B1": {"name": "GspL^peri (domain or fragment)", "chain": "WQLQREGDRYAAQSAELYRQLFPEDRKLINLRAQFDQHLADSASSGGEGQLLGLLGQAATVIGGEPTVSVEQLDFSAARGDVALQVRAPGFDVLERLRSRLSESGLAVQLGSASRDGSTVSARLVIGG"}, "B2": {"name": "GspL (natural protein)", "chain": "MSGVSALFLPPASTAGADGELAVWWVQDGECRRAPFAQALAEIRAPWRLYLPVEAVTACAVNLPTQKARWLRQSLPFAVEEQLADDVEQMHLALGPALADGRHRVFAVQRTWLAAWLALAEGAGKAPASLHVDADCLPGEGSCLFWLEERWLLGGSGAVRLACGSEDWPVLRDSCPPPQRAFAAQEVAPLEGVEVQALAGNPHVWLSEQPLGTDLAQAEFAARQQSSQWRRWRPLLGLVGLWLVLQWGFTLVQAWQLQREGDRYAAQSAELYRQLFPEDRKLINLRAQFDQHLADSASSGGEGQLLGLLGQAATVIGGEPTVSVEQLDFSAARGDVALQVRAPGFDVLERLRSRLSESGLAVQLGSASRDGSTVSARLVIGG"}},
  "key": {"SEC-MALS": {"target": "the molecule itself", "assay": "SEC-MALS"}, "GspM": {"target": "T1, GspM (P. aeruginosa, UniProt P25061 1-174)", "T1 sequence": "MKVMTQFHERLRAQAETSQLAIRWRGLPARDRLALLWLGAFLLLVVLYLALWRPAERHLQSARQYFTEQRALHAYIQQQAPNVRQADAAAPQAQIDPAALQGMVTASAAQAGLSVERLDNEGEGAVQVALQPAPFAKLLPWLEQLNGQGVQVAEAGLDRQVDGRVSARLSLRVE", "assay": "SEC-MALS"}},
  "data": [
    {"binder": "B1", "values": [
      {"measurement": "stoichiometry N", "setting": "SEC-MALS", "value": 2}
    ]},
    {"binder": "B2", "values": [
      {"measurement": "stoichiometry N", "setting": "GspM", "value": "1 GspL per GspM (printed as 2:2)"}
    ]}
  ]
}
